The record followed here is article PMC2925305 (Journal of Nucleic Acids, 2010).

In experiment [1] the target is SUMO-1-GST-TDG (SUMO-1-conjugated GST-TDG) (UniProt Q13569).
For experiment [2] the target is unchanged. Briefly: pull-down; GST pull-down: 10 nM GST or GST-fusion protein and 10 nM XPC-RAD23B with 20 ul glutathione-Sepharose in 100 ul binding buffer (20 mM sodium phosphate pH 7.4, 1 mM EDTA, 150 mM NaCl, 1 mM DTT, 5% glycerol, 0.01% Triton X-100, 100 ug/ml BSA), on ice 1 hour, eight washes, elution with 10 mM glutathione; immunoblot with anti-XPC and anti-GST. On the technique in general: Immunoblotting shows a protein as a band on a membrane.

Experiment [3] deals with GST-TDG (thymine DNA glycosylase fused to glutathione S-transferase, nonmodified) (human, UniProt Q13569 1-410). As to the kind of experiment: cell-based or functional assay.
Sequence of GST-TDG (thymine DNA glycosylase fused to glutathione S-transferase, nonmodified) (Q13569 whole entry, the tested form may be a part): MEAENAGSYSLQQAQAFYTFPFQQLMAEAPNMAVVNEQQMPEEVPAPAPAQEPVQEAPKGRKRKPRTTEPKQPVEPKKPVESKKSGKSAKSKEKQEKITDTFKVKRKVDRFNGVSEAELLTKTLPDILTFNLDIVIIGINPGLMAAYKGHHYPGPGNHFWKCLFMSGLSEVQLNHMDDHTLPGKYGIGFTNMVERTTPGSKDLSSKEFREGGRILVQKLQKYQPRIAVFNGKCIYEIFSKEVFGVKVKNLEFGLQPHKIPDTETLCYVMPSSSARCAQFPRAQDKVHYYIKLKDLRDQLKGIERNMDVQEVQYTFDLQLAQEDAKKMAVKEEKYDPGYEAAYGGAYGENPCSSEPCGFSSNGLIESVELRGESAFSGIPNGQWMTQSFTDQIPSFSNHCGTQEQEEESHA
The target of experiment [4] is T1, GST-SMUG1 (GST-fused SMUG1) (UniProt Q53HV7 1-270).
T1 sequence (looked up): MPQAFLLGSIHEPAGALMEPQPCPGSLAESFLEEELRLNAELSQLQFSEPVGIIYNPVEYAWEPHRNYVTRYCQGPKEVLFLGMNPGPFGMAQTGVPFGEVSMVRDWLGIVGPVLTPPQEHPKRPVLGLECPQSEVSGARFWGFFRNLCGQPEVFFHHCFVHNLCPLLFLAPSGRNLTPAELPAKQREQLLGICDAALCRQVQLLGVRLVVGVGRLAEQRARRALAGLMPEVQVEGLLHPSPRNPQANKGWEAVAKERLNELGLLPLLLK
Briefly: cell-based or functional assay.

Experiment [5] deals with T2, XPC (recombinant human XPC, alone) (human, UniProt Q01831 1-940).
T2 sequence (looked up): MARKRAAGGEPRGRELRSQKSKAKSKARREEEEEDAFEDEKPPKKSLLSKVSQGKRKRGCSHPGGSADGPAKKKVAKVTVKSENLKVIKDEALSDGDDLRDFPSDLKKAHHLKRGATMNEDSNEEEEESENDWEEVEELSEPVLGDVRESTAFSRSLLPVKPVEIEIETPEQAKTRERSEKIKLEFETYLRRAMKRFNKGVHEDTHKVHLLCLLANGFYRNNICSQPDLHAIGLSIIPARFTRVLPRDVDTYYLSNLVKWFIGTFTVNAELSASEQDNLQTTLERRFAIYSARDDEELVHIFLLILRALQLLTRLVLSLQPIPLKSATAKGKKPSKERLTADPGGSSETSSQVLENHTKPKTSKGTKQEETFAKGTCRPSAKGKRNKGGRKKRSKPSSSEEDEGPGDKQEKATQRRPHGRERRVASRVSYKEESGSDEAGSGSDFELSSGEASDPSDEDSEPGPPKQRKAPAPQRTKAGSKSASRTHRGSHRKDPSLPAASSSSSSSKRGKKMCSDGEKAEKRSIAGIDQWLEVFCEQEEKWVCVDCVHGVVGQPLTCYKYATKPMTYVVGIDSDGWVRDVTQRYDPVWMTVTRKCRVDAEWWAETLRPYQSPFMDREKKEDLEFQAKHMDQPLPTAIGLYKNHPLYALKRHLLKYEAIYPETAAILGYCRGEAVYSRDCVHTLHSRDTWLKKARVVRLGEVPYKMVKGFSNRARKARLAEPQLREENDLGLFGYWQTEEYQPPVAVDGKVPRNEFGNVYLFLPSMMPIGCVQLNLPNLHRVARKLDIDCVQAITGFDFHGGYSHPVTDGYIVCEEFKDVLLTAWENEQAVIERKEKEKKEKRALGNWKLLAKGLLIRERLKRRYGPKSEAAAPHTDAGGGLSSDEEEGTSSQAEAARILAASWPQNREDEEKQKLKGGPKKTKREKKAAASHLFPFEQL
Briefly: in vitro reconstitution of the heterodimer; XPC-RAD23B-His heterodimer reconstituted in vitro from purified recombinant XPC and RAD23B-His, as described previously [17]. The following applies: both partners purified.

On to “XPC-RAD23B-His heterodimer (from UniProt Q01831 1-940; P54727 1-409) (complex)”, for which, in experiment [1], the stimulation by XPC-RAD23B (up to 4 nM, dose-dependent) of uracil excision from G/U mismatch DNA (1.6 nM) by 2 nM SUMO-1-conjugated His-TDG, nicking assay, 120 minutes was determined as 5 fold. The fold more XPC bound than to nonmodified GST-TDG in experiment [2] is 2 fold.

B1: XPC-RAD23B-His heterodimer (complex, human)
chain 1: MARKRAAGGEPRGRELRSQKSKAKSKARREEEEEDAFEDEKPPKKSLLSKVSQGKRKRGCSHPGGSADGPAKKKVAKVTVKSENLKVIKDEALSDGDDLRDFPSDLKKAHHLKRGATMNEDSNEEEEESENDWEEVEELSEPVLGDVRESTAFSRSLLPVKPVEIEIETPEQAKTRERSEKIKLEFETYLRRAMKRFNKGVHEDTHKVHLLCLLANGFYRNNICSQPDLHAIGLSIIPARFTRVLPRDVDTYYLSNLVKWFIGTFTVNAELSASEQDNLQTTLERRFAIYSARDDEELVHIFLLILRALQLLTRLVLSLQPIPLKSATAKGKKPSKERLTADPGGSSETSSQVLENHTKPKTSKGTKQEETFAKGTCRPSAKGKRNKGGRKKRSKPSSSEEDEGPGDKQEKATQRRPHGRERRVASRVSYKEESGSDEAGSGSDFELSSGEASDPSDEDSEPGPPKQRKAPAPQRTKAGSKSASRTHRGSHRKDPSLPAASSSSSSSKRGKKMCSDGEKAEKRSIAGIDQWLEVFCEQEEKWVCVDCVHGVVGQPLTCYKYATKPMTYVVGIDSDGWVRDVTQRYDPVWMTVTRKCRVDAEWWAETLRPYQSPFMDREKKEDLEFQAKHMDQPLPTAIGLYKNHPLYALKRHLLKYEAIYPETAAILGYCRGEAVYSRDCVHTLHSRDTWLKKARVVRLGEVPYKMVKGFSNRARKARLAEPQLREENDLGLFGYWQTEEYQPPVAVDGKVPRNEFGNVYLFLPSMMPIGCVQLNLPNLHRVARKLDIDCVQAITGFDFHGGYSHPVTDGYIVCEEFKDVLLTAWENEQAVIERKEKEKKEKRALGNWKLLAKGLLIRERLKRRYGPKSEAAAPHTDAGGGLSSDEEEGTSSQAEAARILAASWPQNREDEEKQKLKGGPKKTKREKKAAASHLFPFEQL
chain 2: MQVTLKTLQQQTFKIDIDPEETVKALKEKIESEKGKDAFPVAGQKLIYAGKILNDDTALKEYKIDEKNFVVVMVTKPKAVSTPAPATTQQSAPASTTAVTSSTTTTVAQAPTPVPALAPTSTPASITPASATASSEPAPASAAKQEKPAEKPAETPVATSPTATDSTSGDSSRSNLFEDATSALVTGQSYENMVTEIMSMGYEREQVIAALRASFNNPDRAVEYLLMGIPGDRESQAVVDPPQAASTGAPQSSAVAAAAATTTATTTTTSSGGHPLEFLRNQPQFQQMRQIIQQNPSLLPALLQQIGRENPQLLQQISQHQEHFIQMLNEPVQEAGGQGGGGGGGSGGIAEAGSGHMNYIQVTPQEKEAIERLKALGFPEGLVIQAYFACEKNENLAANFLLQQNFDED
As for B1, the “stimulation by XPC-RAD23B (various concentrations) of uracil excision from a 60-bp G/U mismatch DNA (1.6 nM) by 0.42 nM His-TDG, nicking assay, 30°C” value in experiment [3] is 5 fold. Further, the “stimulation by XPC-RAD23B (up to 2 nM, dose-dependent) of uracil excision from 60-bp G/U mismatch DNA (1.6 nM) by 2.5 pM SMUG1, nicking assay, 120 minutes” value in experiment [4] stood at 4 fold.

B2: His-tagged RAD23B (RAD23B-His) (natural protein, human, UniProt P54727 1-409, looked up)
chain: MQVTLKTLQQQTFKIDIDPEETVKALKEKIESEKGKDAFPVAGQKLIYAGKILNDDTALKEYKIDEKNFVVVMVTKPKAVSTPAPATTQQSAPASTTAVTSSTTTTVAQAPTPVPALAPTSTPASITPASATASSEPAPASAAKQEKPAEKPAETPVATSPTATDSTSGDSSRSNLFEDATSALVTGQSYENMVTEIMSMGYEREQVIAALRASFNNPDRAVEYLLMGIPGDRESQAVVDPPQAASTGAPQSSAVAAAAATTTATTTTTSSGGHPLEFLRNQPQFQQMRQIIQQNPSLLPALLQQIGRENPQLLQQISQHQEHFIQMLNEPVQEAGGQGGGGGGGSGGIAEAGSGHMNYIQVTPQEKEAIERLKALGFPEGLVIQAYFACEKNENLAANFLLQQNFDED
In the case of B2, the binding result in experiment [5] is “binds”.
